This note sets out measurements from PMC10700433.

Sequence of mouse FcγRIV (A0A0B4J1G0 21-249): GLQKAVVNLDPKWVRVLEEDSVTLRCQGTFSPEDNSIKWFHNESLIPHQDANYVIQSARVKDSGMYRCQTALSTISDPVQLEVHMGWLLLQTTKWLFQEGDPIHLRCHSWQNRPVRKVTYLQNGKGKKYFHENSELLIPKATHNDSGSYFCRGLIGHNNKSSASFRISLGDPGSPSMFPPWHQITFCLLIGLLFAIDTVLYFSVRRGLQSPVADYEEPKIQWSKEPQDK
Sequence of mouse FcγRI (P26151 25-404): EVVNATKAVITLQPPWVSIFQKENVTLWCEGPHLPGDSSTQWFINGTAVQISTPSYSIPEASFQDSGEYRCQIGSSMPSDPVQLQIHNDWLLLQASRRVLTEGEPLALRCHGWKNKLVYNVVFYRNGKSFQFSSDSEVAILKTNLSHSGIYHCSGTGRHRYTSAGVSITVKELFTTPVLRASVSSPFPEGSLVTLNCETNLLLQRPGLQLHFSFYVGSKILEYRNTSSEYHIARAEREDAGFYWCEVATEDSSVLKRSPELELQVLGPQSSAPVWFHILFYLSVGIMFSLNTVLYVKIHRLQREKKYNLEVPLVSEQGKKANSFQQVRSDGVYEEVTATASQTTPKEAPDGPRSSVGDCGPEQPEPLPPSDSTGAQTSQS
Sequence of mouse FcRn (Q61559 22-365): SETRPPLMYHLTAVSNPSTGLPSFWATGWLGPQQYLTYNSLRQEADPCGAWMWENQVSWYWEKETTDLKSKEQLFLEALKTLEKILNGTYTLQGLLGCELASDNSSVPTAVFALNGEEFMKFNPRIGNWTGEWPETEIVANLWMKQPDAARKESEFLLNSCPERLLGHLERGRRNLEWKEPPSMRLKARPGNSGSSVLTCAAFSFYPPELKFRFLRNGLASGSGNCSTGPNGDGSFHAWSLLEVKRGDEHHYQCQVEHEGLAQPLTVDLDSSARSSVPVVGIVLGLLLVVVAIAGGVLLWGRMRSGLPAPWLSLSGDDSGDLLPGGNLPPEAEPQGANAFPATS
Sequence of human FcRn (P55899 24-365): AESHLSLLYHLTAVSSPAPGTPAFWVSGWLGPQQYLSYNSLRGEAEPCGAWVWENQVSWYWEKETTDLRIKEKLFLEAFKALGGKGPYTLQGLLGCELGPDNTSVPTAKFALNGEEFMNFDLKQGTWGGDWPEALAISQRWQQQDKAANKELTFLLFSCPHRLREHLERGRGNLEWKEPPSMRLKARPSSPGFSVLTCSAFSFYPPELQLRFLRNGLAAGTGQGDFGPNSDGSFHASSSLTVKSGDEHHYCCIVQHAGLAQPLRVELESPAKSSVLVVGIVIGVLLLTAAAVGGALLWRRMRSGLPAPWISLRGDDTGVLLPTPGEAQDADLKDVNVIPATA

One experiment deals with IgG4 control antibody. Kind of experiment: BLI; Octet RED96; antibodies captured on FABG2 biosensor tips, recombinant FcRn in solution; association studied at physiological pH, dissociation at pH6.
Broadly, the Kd is the concentration at which binding is half-saturated. On to “human FcRn (from UniProt P55899 24-365) (receptor)”, for which the Kd came to 600 nM.

Turning to “mouse FcRn (from UniProt Q61559 22-365) (receptor)”, the Kd came out at 200 nM.

Another experiment concerns the target IgG4 control antibody. Kind of experiment: BLI; Octet RED96; antibodies captured on FABG2 biosensor tips, recombinant Fcγ receptors in solution at suitable concentration ranges; association and dissociation at physiological pH. (BLI is a label-free optical method that tracks binding on a fibre tip over time.)
For the substance “human FcγRIII 176V (from UniProt P08637 17-254) (receptor)”, the Kd came to 600000 nM.

With “human FcγRIIa (from UniProt P12318 34-317) (receptor)”, the Kd was found to be 500 nM.

As to “human FcγRIIb (from UniProt P31994 43-310) (receptor)”, the Kd stood at 600 nM.

Consider “mouse FcγRI (from UniProt P26151 25-404) (receptor)”, for which the Kd was 200 nM.

Regarding “mouse FcγRIII (from UniProt P08508 31-261) (receptor)”, the dissociation constant (Kd) was found to be 100 nM.

With “mouse FcγRIIb (from UniProt P08101 30-330) (receptor)”, the Kd was 700 nM.

Consider “mouse FcγRIV (from UniProt A0A0B4J1G0 21-249) (receptor)”, for which the Kd is 2000 nM.
